From paper PMC5805711 (Scientific Reports, 2018)

Columns and labels:
[1] = target: T1, ubiquitin phosphorylated at serine-65 (pUb) (UniProt P0CG48 1-76, phosphoserine at 65); test: NMR titration; 15N-labeled Ub variant titrated with unlabeled UBA; amide CSPs in 1H-15N spectra, global fit to a single-site binding model; 23 °C, 20 mM sodium phosphate pH 6.8, 0.02% NaN3, 7% D2O; details: both partners purified
T1 construct: ubiquitin, the cut product of a ubiquitin precursor, phosphorylated at S65; Uniformly 15N-labelled for NMR; In solution two conformers in slow, pH-dependent exchange: native-like pUb^nat and alternate pUb^alt; both are this one molecule; also called S65 pUb; phosphorylated Ub

[2] = target: T2, wild-type ubiquitin (Ub^WT) (UniProt P0CG48 1-76); test: as above; details: both partners purified
T2 construct: ubiquitin, the cut product of a ubiquitin precursor; last residue G76; Uniformly 15N-labelled for NMR; also called WT Ub; source: grown and purified using the standard Ub purification protocol; grown in 15N-enriched minimal media for NMR

B1: ubiquitin-associated domain (UBA) of human ubiquilin-1/hPLIC1, V545Y (domain or fragment, UniProt Q9UMX0 545-586, looked up)
chain: YRFQQQLEQLSAMGFLNREANLQALIATGGDINAAIERLLGS
notes: UBA domain of human ubiquilin-1 (hPLIC1) with V545Y; V545Y was introduced to allow concentration determination by absorbance at 280 nm; Unlabelled in the titrations; also called ubiquilin-1 UBA
B1 showed a Kd [1] of 8 ± 2.5 µM and a Kd [2] of 4.9 ± 1.2 µM.
